Measured values reported in PMC11840766 (ACS Omega, 2025).

Target: T1, extracellular protein domain (position 43-300) of human CD38 (Homo sapiens, UniProt P28907)
T1 construct: human CD38, extracellular domain, position 43-300; also called CD38 (extracellular domain); source: kindly provided by Dr. Hanna Tegel
Assay: SPR; ProteOn XPR36; scFv_(CD38) sortase-coupled to a G5-silk coating on bare gold outside the instrument; CD38 extracellular domain (printed: 200 mM) in PBS pH 7.4/0.01% Tween 20 flown at 25 uL/min, 30 min
Details: both partners purified

B1: scFv_(CD38)-silk (scFv_(CD38) sortase-coupled to the N-terminus of G5-FN-4RepCT), as silk coating (scFv, V domains shown)
VH: QVQLVQSGAEVKKPGSSVKVSCKPSGGTFRSYAISWVRQAPGQGLEWMGRIIVFLGKVNYAQRFQGRVTLTADKSTTTAYMELSSLRSEDTAVYYCTGEPGARDPDAFDIWGQGTMVTVSS
VL: DIQMTQSPSSLSASVGDRVTITCRASQGIRSWLAWYQQKPEKAPKSLIYAASSLQSGVPSRFSGSGSGTDFTLTISSLQPEDFATYYCQQYNNYPLTFGGGTKVEIK
notes: VH of the anti-CD38 scFv; 3xG4S linker, written out from the printed name; VL of the anti-CD38 scFv; what is left of the sortase recognition tag LPETGG after sortase A cleaves between threonine and glycine; the five N-terminal glycines of G5-silk, told in words; 4RepCT, a miniature form of the major ampullate spidroin 1 (MaSp 1) from Euprosthenops australis; The GG-His6 end is lost on coupling; …
B1: binds.
